According to patent US20200347130A1 (JIANGSU HENGRUI MEDICINE, published 2020):
Residue numbers refer to the chain shown, from its start.

T1: Monkey CD96-3xFlag (cyno-CD96-3xFLAG) (cynomolgus monkey)
T1 construct: Signal peptide marked only by lost underlining; also called cynomolgus CD96
T1 chain: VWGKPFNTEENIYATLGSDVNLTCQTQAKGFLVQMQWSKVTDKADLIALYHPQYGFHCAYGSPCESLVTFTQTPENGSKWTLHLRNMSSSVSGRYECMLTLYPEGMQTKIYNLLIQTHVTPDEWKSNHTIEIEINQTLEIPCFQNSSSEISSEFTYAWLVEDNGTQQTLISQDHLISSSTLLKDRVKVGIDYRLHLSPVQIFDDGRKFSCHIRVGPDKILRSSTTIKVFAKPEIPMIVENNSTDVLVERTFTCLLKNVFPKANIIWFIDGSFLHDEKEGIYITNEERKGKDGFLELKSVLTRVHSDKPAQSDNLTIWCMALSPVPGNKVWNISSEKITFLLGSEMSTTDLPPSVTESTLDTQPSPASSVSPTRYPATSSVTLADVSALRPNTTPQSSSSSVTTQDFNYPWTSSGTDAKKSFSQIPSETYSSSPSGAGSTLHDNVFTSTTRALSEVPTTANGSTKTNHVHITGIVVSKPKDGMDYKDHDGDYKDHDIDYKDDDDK

T2: CD96 extracellular region with His tag (CD96-His) (human, UniProt P40200 22-519)
T2 construct: also called CD96-ECD-His; Bio-CD96-His (biotin-labelled form)
T2 sequence: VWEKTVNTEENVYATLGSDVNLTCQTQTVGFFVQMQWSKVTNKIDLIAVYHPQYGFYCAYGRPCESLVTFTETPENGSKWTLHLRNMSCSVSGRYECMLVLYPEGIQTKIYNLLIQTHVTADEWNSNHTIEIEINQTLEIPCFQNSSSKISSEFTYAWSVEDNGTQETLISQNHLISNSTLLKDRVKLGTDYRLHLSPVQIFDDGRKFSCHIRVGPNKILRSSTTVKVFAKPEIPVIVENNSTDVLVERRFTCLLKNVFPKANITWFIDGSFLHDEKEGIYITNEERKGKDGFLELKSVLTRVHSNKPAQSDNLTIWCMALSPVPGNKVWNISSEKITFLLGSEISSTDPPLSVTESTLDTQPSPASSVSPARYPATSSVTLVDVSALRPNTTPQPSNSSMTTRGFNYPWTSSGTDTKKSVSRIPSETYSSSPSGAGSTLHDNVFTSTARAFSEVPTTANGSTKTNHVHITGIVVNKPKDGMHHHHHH

B1: ch1722 (antibody, human IgG4 S228P, kappa, V domains shown)
VH: QVQLQQPGAELVKPGTSVKLSCKASGNTFIDYWMHWVKQRPGQGLEWIGMLHPNSGTTSFNEKFKIKTTLTIDKSSSTAYMQLSSLTSEDSAIYYCASDYSGPFAYWGQGTLVTVSA
VL: QIVLTQSPGIMSAFPGEKVTMTCSASSSVNYIHWYQQKSGTSPKRWIFDTSKLASGVPARFSGSGSGTSYSLTISSMEAEDAATYYCQQWRSNPLTFGAGTKLELKR
notes: also called chi722; chimeric antibody corresponding to m1722
B2: ch1720 (antibody, human IgG4 S228P, kappa, V domains shown)
VH: EFQLQQSGPELVKPGASVKISCKASAYSLTDYNMNWVKQSNGKSLEWIGVINPSYGISSYNQKFKGKATLTVDQSSSTAYMHLNSLTSEDSAVYYCARQLRLPGYFDVWGTGTTVTVSS
VL: DIKMTQSPSSKNASLGERVTITCKASQDINSYLNWFQQKPGKSPKTLIYRASRLVDGVPSRFSGSGSGQDYSLTISSLEYEDMGIYYCLKYDEFPYTFGGGTKLEIKR
notes: also called chimeric antibody corresponding to m1720
B3: ch1718 (antibody, human IgG4 S228P, kappa, V domains shown)
VH: B2 VH with L29I, S58T, S59D, K63N, G66D, H82Q, R98I, T116I
VL: B2 VL with K11M, N12Y, S31N, S52N, L104V
notes: also called chimeric antibody corresponding to m1718
B4: h1721-003 (antibody, V domains shown)
VH: EVTLKESGPVLVKPTETLTLTCTVSGFSLSSYGVNWIRQPPGKALEWLGVIWGDGSTNYHSALISRLTISKDTSKSQVVLTLTNMDPVDTATYYCAKNYFYGSRYGYAMDSWGQGTTVTVSS
VL: DIQMTQSPSSLSASVGDRVTITCRASENIYSSLAWYQQKPGKAPKLLIYNAKTLIEGVPSRFSGSGSGTDFTLTISSLQPEDFATYYCQHHYGTPYTFGGGTKVEIK
notes: Only variable regions are tied to this name; also called M721-003
B5: h1719-014 (antibody, V domains shown)
VH: B4 VH with N35S, I37V, A44G, S56N, A62V, F100Y, A108P, M109L, S111Y
VL: DIQMTQSPSSVSASVGDRVTITCKATQDVGTAVAWYQQKPGKSPKLLIYWASTRHTGVPERFSGSGSGTDFTLTISSLQPEDFATYFCQQYGSSVLTFGGGTKVEIK
notes: Only variable regions are tied to this name; also called M719-014
B6: ch1719 (antibody, human IgG4 S228P, kappa, V domains shown)
VH: QVQLKESGPGLVAPSQSLSITCTVSGFSLISYGVSWVRQPPGKGLEWLGVIWGDGNTNYHSVLISRLSIRKDDSKSQVFLKLNSLQTDDTATYYCAKNNYYGSRYGYPMDYWGQGTSVTVSS
VL: DIVMTQSHKFMSTSVGDRVSITCKATQDVGTAVAWYQQKPGHSPKLLIYWASTRHTGVPERFTGSGSGTDFTLTIDNVQSEDLADYFCQQYGSSVLTFGAGTKVELRR
notes: also called chimeric antibody corresponding to m1719
B7: ch1721 (antibody, human IgG4 S228P, kappa, V domains shown)
VH: B6 VH with S35N, N56S, V62A, R70S, K81N, N99Y, Y100F, P108A, Y111S, T116I
VL: DIQMTQSPASLSAAVGETVTITCRASENIYSSLAWYQQKQGKSPQLLVYNAKTLIETVASRFSGSGSGTQYSLKINSLQPEDFGSFYCQHHYGTPYTFGGGTKLEIKR
notes: also called chimeric antibody corresponding to m1721
B8: h1722-010 (antibody, V domains shown)
VH: EVQLVQSGAEVKKPGSSVKVSCKASGGTFSDYWMHWVRQAPGQGLEWIGMLHPNSGTTSFNEKFKIRVTITADKSTSTAYMELSSLRSEDTAVYYCASDYSGPFAYWGQGTLVTVSS
VL: DIQLTQSPSSLSASVGDRVTITCSASSSVNYIHWYQQKPGKAPKRWIFDTSKLASGVPSRFSGSGSGTDYTLTISSLQPEDFATYYCQQWRSNPLTFGQGTKLEIK
notes: Only variable regions are tied to this name; also called M722-010
B9: h1722-018 (antibody, V domains shown)
VH: B8 VH with N54Q
VL: B8 VL
B10: h1722-017 (antibody, V domains shown)
VH: B8 VH with N54K
VL: B8 VL
B11: h1718-012 (antibody, V domains shown)
VH: EVQLVQSGAEVKKPGASVKVSCKASGYTITDYNMNWVRQAPGQRLEWIGVINPSYGITDYNQNFKDRVTITVDTSASTAYMELSSLRSEDTAVYYCAIQLRLPGYFDVWGQGTTVTVSS
VL: DIQMTQSPSSLSASVGDRVTITCKASQDINQYLNWFQQKPGKAPKTLIYRANRLVDGVPSRFSGSGSGQDYTLTISSLQPEDFATYYCLKYDEFPYTFGGGTKVEIK
notes: Only variable regions are tied to this name
B12: h1719-006 (antibody, V domains shown)
VH: B4 VH with N35S, I37V, A44G, S56N, A62V, Y99N, F100Y, A108P, S111Y
VL: B5 VL
notes: also called M719-006
B13: h1722-006 (antibody, V domains shown)
VH: B8 VH
VL: B8 VL with L4M, F48Y, Y70F
notes: as for B11

Target: T1, Monkey CD96-3xFlag (cyno-CD96-3xFLAG)
Assay: ELISA, cyno-CD96-3xFLAG coated
Protocol: The cross-reactive binding capacity of the anti-CD96 antibody to monkey CD96 was tested by ELISA to determine the binding of the antibody to cynomolgus CD96 protein. The 3×FLAG-tagged CD96 fusion protein was used to coat the microtiter plate, and the intensity of the signal after adding with the antibody was used for evaluating the binding activity of the antibody and cynomolgus CD96. The specific experimental method is as follows:
cyno-CD96-3×FLAG with the amino acid sequence of SEQ ID NO: 95 prepared in Embodiment 4 was diluted to a concentration of 2 μg/ml with PBS buffer (Shanghai Yuanpei Biotechnology Co., Ltd. Cat No. B320), pH 7.4, added to a 96-well microtiter plate (Corning, Cat No. CLS3590-100EA) at a volume of 50 μl/well, and placed in an incubator at 37° C. for 2 hours. After discarding the liquid, 250 μl/well of 5% skim milk (BD, 232100) blocking solution diluted with PBS was added, and the plate was incubated in an incubator at 37° C. for 2.5 hours or at 4° C. overnight (16-18 hours) for blocking. After blocking, the blocking solution was discarded, and the plate was washed 4 times with PBST buffer (pH 7.4 PBS containing 0.05% tween-20). 50 μl/well of different concentrations of the antibodies to be tested (hybridoma purification antibody or humanized antibody) diluted with sample dilution was added, and the plate was incubated in an incubator at 37° C. for 1 hour. […] After washing the plate 4 times with PBST, 50 μl/well of TMB chromogenic substrate (KPL, Cat No. 52-00-03) was added, and the plate was incubated at room temperature for 5-15 minutes, followed by adding 50 μl/well of 1M H₂SO₄ to stop the reaction. The absorption value was read at 450 nm with a NOVOStar microplate reader, and the EC50 value of the binding of CD96 antibody to monkey CD96 was calculated (see Table 14).

EC50 [nM]	Binder
0.05	B1
0.096	B2
0.068	B3
0.037	B4
0.065	B5
0.047	B6
0.046	B7
0.047	B8
0.051	B9
0.047	B10
0.075	B11

target: T2, CD96 extracellular region with His tag …; assay: blocking cell ELISA: antibody premixed with Bio-CD96-His (0.5 ug/mL), binding to fixed CD155-CHO cells
Protocol: CD155-CHO cells (constructed by Shanghai Hengrui) were seeded in 96-well culture plates at a density of 9×10⁴/100 μL/well and cultured overnight. After aspirating the supernatant, the plate was washed once with PBS, 100 μl/well of immunostaining fixation solution (Biyuntian, Cat No. P0098) was added and fixed for one hour at room temperature, and the plate was washed three times with PBS. After discarding the liquid, 250 μl/well of 5% skim milk (BD, Cat No. 232100) blocking solution diluted with PBS was added, and the plate was blocked in an incubator at 37° C. for 2.5 hours. After blocking, the blocking solution was discarded, subsequently, the plate was washed 4 times with PBST buffer (pH 7.4 PBS containing 0.05% tween-20). 50 μl/well of antigen-antibody pre-incubation solution (gradient concentrations of the hybridoma antibody to be tested and CD96-Fc at a final concentration of 0.5 μg/mL were premixed at 37° C. for 30 minutes, or gradient concentrations of humanized antibody samples and Bio-CD96-His at a final concentration of 0.5 μg/mL were premixed at 37° C. for 30 minutes) (Biotin-labeled kit, Dongren Chemical, Cat No. LK03) was added, and the plate was incubated in an incubator at 37° C. for 2 hours. After incubation, the reaction solution in the microtiter plate was discarded, the plate was washed 4 times with PBST, and 50 μl/well of HRP-labeled goat anti-human secondary antibody (Jackson Immuno Research, Cat No. 109-035-003) diluted with sample dilution or HRP-labeled streptavidin diluted with sample dilution (Sigma, Cat No. 52438) was added, followed by incubating at 37° C. for 1 hour. After washing the plate 4 times with PBST, 50 μl/well of TMB chromogenic substrate (KPL, Cat No. 52-00-03) was added, the plate was incubated at room temperature for 10-20 minutes, followed by adding 50 μl/well of 1M H₂SO₄ to stop the reaction. The absorption value was read at 450 nm with a NOVOStar microplate reader, and the EC50 value of the effect of CD96 antibody on blocking the binding between the antigens and CD155-CHO cells was calculated (see FIG. 2 and Table 16).

IC50 [nM]	Binder
0.155	B4
0.064	B12
0.046	B5
0.207	B8
0.398	B13
0.134	B9
0.135	B10
0.133	B11
